Experimental data reported in patent publication US20130295112A1 (AbbVie / Abbott, published 2013).

How the values were obtained:
[1] = molecular target: T1, recombinant rat beta nerve growth factor (rat, UniProt P25427 122-241); assay: cell-based or functional assay
[2] = molecular target: recombinant human beta nerve growth factor (human) (UniProt P01138); assay: cell-based or functional assay
[3] = molecular target: T1, recombinant rat beta nerve growth factor; assay: cell-based or functional assay; remark: listed apart in the source
recombinant mouse NGF = recombinant mouse NGF (mouse, UniProt P01139 122-241, limits assumed); assay: cell-based or functional assay
Sequence of recombinant mouse NGF (P01139 122-241 limits assumed): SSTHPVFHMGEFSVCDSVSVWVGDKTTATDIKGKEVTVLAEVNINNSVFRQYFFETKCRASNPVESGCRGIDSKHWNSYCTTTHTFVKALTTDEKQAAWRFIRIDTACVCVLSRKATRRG

[4] = molecular target: T1, recombinant rat beta nerve growth factor; assay: cell-based or functional assay; remark: listed apart in the source
[5] = molecular target: T2, human neurotrophin 3 (NT3) (human, UniProt P20783 139-257); assay: ELISA, plates coated with human NT3, PG110 titrated, fluorescence read-out
T2 construct: Bought protein coated on ELISA plates
T2 sequence (looked up): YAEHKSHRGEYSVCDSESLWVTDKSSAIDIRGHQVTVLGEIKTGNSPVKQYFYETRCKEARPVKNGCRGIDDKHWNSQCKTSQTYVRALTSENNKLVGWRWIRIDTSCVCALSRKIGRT
Procedure: (§1) The selectivity profile of PG110 binding to human neurotrophins was determined using an Enzyme-Linked ImmunoSorbent Assay (ELISA) binding assay. ELISA plates were coated with 100 ng/well of either human NGF (R&D Systems, Cat. No. 256-GF), brain-derived neurotrophic factor (BDNF) (R&D Systems, Cat. No. 248-BD), neurotrophin 3 (NT3) (R&D Systems, Cat. No. 267-N3) or neurotrophin 4 (NT4) (R&D Systems, Cat. No. 268-N4). PG110 was added to neurotrophin-coated wells in the concentration range 3 pM-3 nM. After washing (PBS in 0.5% (v/v) Tween 20, pH 7.3), PG110 binding was detected using a biotinylated anti-human IgG antibody (Rockland Immunochemical Inc., Cat. No. 609-1602) coupled with streptavidin-linked alkaline phosphatase (Sigma Aldrich, Cat. No. S2890), followed by development of a color reaction by addition of 4-methylumbelliferyl phosphate (Sigma Aldrich, Cat. No. M3168). The reaction product was quantified using a fluorimeter (excitation at 360 nm; emission at 440 nm).

[6] = molecular target: T3, human neurotrophin 4 (NT4) (human, UniProt P34130 81-210); assay: ELISA, plates coated with human NT4, PG110 titrated, fluorescence read-out
T3 construct: Bought protein coated on ELISA plates
T3 sequence (looked up): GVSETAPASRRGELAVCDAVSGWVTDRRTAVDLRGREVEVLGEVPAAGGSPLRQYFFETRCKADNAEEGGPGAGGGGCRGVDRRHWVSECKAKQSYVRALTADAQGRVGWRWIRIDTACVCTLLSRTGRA
Procedure: as §1

[7] = molecular target: T4, human brain-derived neurotrophic factor (BDNF) (human, UniProt P23560 129-247); assay: ELISA, plates coated with human BDNF, PG110 titrated, fluorescence read-out
T4 construct: Bought protein coated on ELISA plates; also called human BDNF
T4 sequence (looked up): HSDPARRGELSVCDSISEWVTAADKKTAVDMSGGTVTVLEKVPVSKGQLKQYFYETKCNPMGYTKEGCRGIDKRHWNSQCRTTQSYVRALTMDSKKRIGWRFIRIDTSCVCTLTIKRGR
Procedure: as §1

[8] = molecular target: T1, recombinant rat beta nerve growth factor; assay: SPR (BIAcore), rrNGF immobilised on CM5 (60 RU), PG110 as analyte, 37 C, 1:1 Langmuir, mean of 3
Excerpt: BIAcore analysis was used to evaluate the binding kinetics of the interaction between PG110 and either recombinant rat NGF (rrNGF) or recombinant human NGF (rhNGF).
Recombinant human beta nerve growth factor (rhNGF) (R&D Systems, Cat. No. 256 GF/CF) or recombinant rat beta nerve growth factor (rrNGF) (R&D Systems, Cat. No. 556 GF/CF) was immobilized covalently on CM5 sensor chips (GE Healthcare, formerly Biacore AB, Uppsala, Sweden) via primary amine groups using the amine coupling kit (GE Healthcare), with HBSEP (10 mM 4-(2-hydroxyethyl)-1-piperazineethanesulfonic acid (HEPES), 150 mM NaCl, 3 mM ethylene-diamine-tetraacetic acid (EDTA) and 0.005% Tween® 20, pH 7.4) as running buffer. The sensor chip surface was activated by injection of a mixture of 400 mM N-(3-Dimethylaminopropyl)-N′-ethylcarbodiimide (EDC) and 100 mM N-Hydroxysuccinimide (NHS) (1:1, v/v) for 7 minutes at a flow rate of 10 μl/min. β-NGF (rh or rr) was diluted to 200 ng/ml in 10 mM sodium acetate pH 4.0 and the diluted solution was injected over the activated surface for various times to yield different surface densities. For quantitative interaction analyses, a surface density of 60 RU was prepared by injection of 50 μl diluted β-NGF (contact time 5 minutes). Non-reacted NHS esters were deactivated with 70 μl (contact time 7 minutes) ethanolamine solution (1 M, pH 8.5).

T1 sequence (P25427 122-241 limits assumed): as the sequence (P01139 122-241 limits assumed) above, with A40G, R50K, S61P, E94D, T117A counted along it
Sequence of recombinant human beta nerve growth factor (human) (P01138 122-241 limits assumed): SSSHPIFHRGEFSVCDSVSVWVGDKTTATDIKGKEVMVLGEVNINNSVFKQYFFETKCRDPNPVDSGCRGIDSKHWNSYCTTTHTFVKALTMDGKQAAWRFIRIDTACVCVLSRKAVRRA

Molecule: rat αD11 antibody (precursor of PG110)
- IC50, TF1 cell proliferation mediated by rat NGF (MTT), geomean, n=3; Batch 1 [1]: 0.0448 µg/mL
- IC50, TF1 cell proliferation mediated by rat NGF (MTT), n=1; Batch 2 [1]: 0.0549 µg/mL
- IC50, TF1 cell proliferation mediated by human NGF (MTT), geomean, n=3; Batch 1 [2]: 0.0637 µg/mL
- IC50, TF1 cell proliferation mediated by human NGF (MTT), n=1; Batch 2 [2]: 0.107 µg/mL

B1: PG110 (humanized anti-NGF antibody, Hu-alphaD11 variable regions with Ser-to-Pro hinge-mutated human IgG4 constant region and human kappa light chain) (antibody, V domains shown)
VH: EVQLVESGGGLVQPGGSLRLSCAASGFSLTNNNVNWVRQAPGKGLEWVGGVWAGGATDYNSALKSRFTISRDNSKNTAYLQMNSLRAEDTAVYYCARDGGYSSSTLYAMDAWGQGTLVTVSS
VL: DIQMTQSPSSLSASVGDRVTITCRASEDIYNALAWYQQKPGKAPKLLIYNTDTLHTGVPSRFSGSGSGTDYTLTISSLQPEDFATYFCQHYFHYPRTFGQGTKVEIKR
notes: expressed in CHO cells; also called PG110 antibody; PG110 mAb
- IC50, TF-1 cell proliferation stimulated by 10 ng/ml rat recombinant NGF (MTT), geomean, n=5 [3]: 0.0278 µg/mL
- IC50, TF-1 cell proliferation stimulated by 10 ng/ml mouse recombinant NGF (MTT), geomean, n=3 (recombinant mouse NGF): 0.0308 µg/mL
- IC50, TF1 cell proliferation mediated by rat NGF (MTT), geomean, n=2 [4]: 0.0262 µg/mL
- binding result [5]: no binding
- binding result [6]: no binding
- binding result [7]: no binding
- Kd [8]: 0.092 nM
- koff [8]: 1.5e-05 s⁻¹
- kon [8]: 170000 M⁻¹ s⁻¹
